Assay results from US20110318347A1 (Ablynx, published 2011).

T1: CXCR3 (UniProt P49682 1-368, limits assumed)
T1 construct: whole, on cells
T1 sequence (looked up): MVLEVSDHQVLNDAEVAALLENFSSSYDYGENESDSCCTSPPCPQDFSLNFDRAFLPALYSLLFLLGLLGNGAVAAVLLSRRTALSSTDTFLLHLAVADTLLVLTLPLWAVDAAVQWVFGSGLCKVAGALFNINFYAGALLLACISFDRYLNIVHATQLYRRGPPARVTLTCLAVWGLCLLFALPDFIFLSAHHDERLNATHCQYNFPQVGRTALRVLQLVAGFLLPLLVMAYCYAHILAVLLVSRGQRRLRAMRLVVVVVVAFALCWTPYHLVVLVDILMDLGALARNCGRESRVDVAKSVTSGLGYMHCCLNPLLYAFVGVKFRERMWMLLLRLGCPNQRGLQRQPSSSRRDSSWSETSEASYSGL


Assays:
human CD4 on cells = human CD4 on cells (human, UniProt P01730 26-458); test: cell-based or functional assay
CCR5 = CCR5 (UniProt P51681 1-352, limits assumed); test: cell-based or functional assay
CXCR3 = biological target: T1, CXCR3; test: total binding of [125I]-238D2 to membranes of HEK293T cells expressing CXCR4 or CXCR3

Sequence of CCR5 (P51681 whole entry): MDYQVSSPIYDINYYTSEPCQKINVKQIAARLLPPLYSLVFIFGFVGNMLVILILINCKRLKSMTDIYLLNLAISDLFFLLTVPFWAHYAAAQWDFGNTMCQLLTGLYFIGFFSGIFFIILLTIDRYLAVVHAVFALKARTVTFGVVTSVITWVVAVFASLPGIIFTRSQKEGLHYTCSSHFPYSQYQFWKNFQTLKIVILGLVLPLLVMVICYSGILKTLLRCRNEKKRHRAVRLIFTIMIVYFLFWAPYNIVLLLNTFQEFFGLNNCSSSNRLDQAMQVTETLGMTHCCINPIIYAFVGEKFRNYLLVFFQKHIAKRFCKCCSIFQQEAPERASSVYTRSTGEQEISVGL

| Binder | anti-HIV activity, NL4.3 on MT4 cells, MTS method, IC50 (human CD4 on cells) [nM] | anti-HIV activity, NL4.3 on MT4 cells, p24 levels, IC50 (human CD4 on cells) [nM] | IC50, HIV-1 BaL, PBMC donor 1 (CCR5) [µg/mL] | IC50, HIV-1 BaL, PBMC donor 2 (CCR5) [µg/mL] | nM IC50, HIV-1 BAL, PBMC donor 1 (CCR5) [nM] | nM IC50, HIV-1 BAL, PBMC donor 2 (CCR5) [nM] | binding result (CXCR3) |
| --- | --- | --- | --- | --- | --- | --- | --- |
| Nanobody 03F11 (VHH) VHH: EVQLVESGGGSVQPGGSLTLSCGTSGRTFNVMGWFRQAPGKEREFVAAVRWSSTGIYYTQYADSVKSRFTISRDNAKNTVYLEMNSLKPEDTAVYYCAADTYNSNPARWDGYDFRGQGTQVTVSS | 85 | 15 | – | – | – | – | – |
| Nanobody 238D2 (VHH, In some assays the Nanobody was 125I-labelled (Iodo-gen, on tyrosine); the letters do not carry this., Monovalent llama VHH against human CXCR4, purified; tags not described; also called 238C1) VHH: EVQLVESGGGLVQTGGSLRLSCAASGFTFSSYAMSWVRQAPGKGLEWVSGIKSSGDSTRYAGSVKGRFTISRDNAKNMLYLQMYSLKPEDTAVYYCAKSRVSRTGLYTYDNRGQGTQVTVSS | – | – | > 1 | > 1 | > 67 | > 67 | no binding (tested: 3 nM radioligand) |
